Assay results as given in patent US20250066499A1 (SUNSHINE GUOJIAN PHARMACEUTICAL SHANGHAI, published 2025).
Changes are numbered by the printed parent chain. Read-outs that look alike come from different tables or passages of the source.

B1: 48A11-HuV33 (antibody, human IgG4, V domains shown)
VH: QVQLVQSGAEVKKPGASVKVSCKASGYTFTSYWMHWVRQAPGQGLEWIGEINPSIGRTNYNEKFKSRVTLTRDTSTSTAYMELSSLRSEDTAVYYCARRVYGTMDYWGQGTLVTVSS
VL: DIQMTQSPSSLSASVGDRVTITCKASQDINSYLSWFQQKPGKSPKLLIYRANIWVDGVPSRFSGSGSGQDYTFTISSLQPEDIATYYCLQYDELYTFGQGTKVEIK
notes: Humanized
B2: 56B10-HuV31 (antibody, human IgG4, V domains shown)
VH: QVQLQQSGAEVKKPGASVKVSCKASGYTFTRYYIYWVRQRPGQGLEWIGWIYPGNFNTKYNEKFKGRATLTADTSASTAYMELSSLTSEDTAVYYCARDVYDYAGFAYWGQGTLVTVSS
VL: DIQLTQSPSFLSASVGDRVTITCKASQGVATAVAWYQQKPGQSPKLLIYWASTRHTGVPDRFSGSGSGTEFTLTISSLQPEDFATYYCQQYSSYPWTFGQGTKVEIK
notes: Humanized

How the values were obtained:
[1] = biological target: T1, human CD73-His protein (human, UniProt P21589 27-549); test: ELISA as in Example 3, antigen CD73-his, antibody titrated, absorbance 450 nm
T1 construct: Expressed in HEK-293F with a signal peptide that is not specified; In the ELISAs it was biotinylated with EZ-Link NHS-Biotin (CD73-biotin) and captured on streptavidin; in SPR and the enzyme assay it was used as CD73-His; also called CD73-his antigen; CD73-biotin
T1 sequence: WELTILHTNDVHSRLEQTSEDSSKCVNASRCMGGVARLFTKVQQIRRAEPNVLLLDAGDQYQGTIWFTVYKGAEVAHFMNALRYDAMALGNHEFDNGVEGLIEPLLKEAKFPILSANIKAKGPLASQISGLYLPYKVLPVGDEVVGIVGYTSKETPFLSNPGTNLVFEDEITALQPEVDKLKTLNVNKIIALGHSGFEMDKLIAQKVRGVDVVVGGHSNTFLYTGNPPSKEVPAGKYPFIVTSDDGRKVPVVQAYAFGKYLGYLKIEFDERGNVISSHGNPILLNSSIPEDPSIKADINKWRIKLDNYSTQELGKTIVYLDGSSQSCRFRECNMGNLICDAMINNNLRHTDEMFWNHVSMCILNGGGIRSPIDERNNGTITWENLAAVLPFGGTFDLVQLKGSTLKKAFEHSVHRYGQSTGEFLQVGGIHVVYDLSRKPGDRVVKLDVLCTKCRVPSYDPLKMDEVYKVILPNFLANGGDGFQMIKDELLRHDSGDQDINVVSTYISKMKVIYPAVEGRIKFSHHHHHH

[2] = biological target: T2, CD73-ND-N185A (human, UniProt P21589 27-317); test: ELISA, biotinylated antigen on streptavidin plate
T2 construct: Alanine mutant of CD73-ND
T2 sequence: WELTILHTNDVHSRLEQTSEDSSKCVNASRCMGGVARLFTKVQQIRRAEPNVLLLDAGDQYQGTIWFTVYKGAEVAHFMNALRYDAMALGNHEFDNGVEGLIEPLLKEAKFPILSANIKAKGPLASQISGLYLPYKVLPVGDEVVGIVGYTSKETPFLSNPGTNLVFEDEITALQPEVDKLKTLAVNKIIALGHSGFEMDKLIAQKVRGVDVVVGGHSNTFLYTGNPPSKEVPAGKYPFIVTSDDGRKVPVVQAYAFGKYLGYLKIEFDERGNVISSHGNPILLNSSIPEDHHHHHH
Description: (§1) The ELISA plates were coated with SA protein diluted to 1.5 μg/mL in coating buffer (50 mM carbonate coating buffer, pH 9.6) and incubated overnight at 4° C. The supernatant was discarded, and the plates were washed three times with PBST. Then, 5% skimmed milk powder prepared with PBS was added for blocking and the plates were incubated for 2 h at 37° C. After washing the plates once with PBST, CD73-biotin protein (prepared by biotinylating CD73-His protein according to the EZ-Link NHS-Biotin Reagent instructions) was diluted to 0.5 μg/mL and added at 100 μL/well for incubation at room temperature for 1 h. The plates were washed three times with PBST, and the prepared murine-derived monoclonal antibodies against human CD73 were serially diluted with 1% BSA buffer prepared with PBST and added to the ELISA plates at 100 μl/well. The plates were incubated at 37° C. for 1 h. After washing the plates three times with PBST, HRP-labeled goat anti-mouse IgG secondary antibody was added and the plates were incubated for 30 min at 37° C. After washing the plates three times with PBST, the residual droplets were patted dry on absorbent paper as much as possible. Then, 100 μl of TMB color developing solution was added to each well, and the plates were incubated in the dark at room temperature for 5 min for color development. Subsequently, 50 μl of 2M H₂SO₄ stop solution was added to each well to terminate the substrate reaction. The OD values were read at 450 nm using a multimode microplate reader to analyze the binding ability of the tested antibodies to the target antigen human CD73-His.
(§2) Referring to the experimental method in Example 3, the affinity of 48A11-HuV33 for various mutant proteins of CD73-ND was determined. The SA protein was diluted to 1 μg/mL for coating the ELISA plates, and the biotinylated CD73 protein (CD73-biotin) was used at a concentration of 0.1 μg/mL.

[3] = biological target: T3, CD73-ND-E143A (human, UniProt P21589 27-317); test: ELISA, biotinylated antigen on streptavidin plate
T3 construct: Alanine mutant of CD73-ND
T3 sequence: T2 sequence with E143A, A185N
Description: as §1, §2

[4] = biological target: T4, CD73-ND-K182A (human, UniProt P21589 27-317); test: ELISA, biotinylated antigen on streptavidin plate
T4 construct: Alanine mutant of CD73-ND
T4 sequence: T2 sequence with K182A, A185N
Description: as §1, §2

[5] = biological target: T5, CD73-ND-K180A (human, UniProt P21589 27-317); test: ELISA, biotinylated antigen on streptavidin plate
T5 construct: Alanine mutant of CD73-ND
T5 sequence: T2 sequence with K180A, A185N
Description: as §1, §2

[6] = biological target: T1, human CD73-His protein; test: ELISA as in Example 3, antigen CD73-his, antibody titrated, absorbance 450 nm; remark: listed apart in the source

| Binder | EC50 (read off the curve) [1] [nM] | EC50 [2] [nM] | EC50 [3] [nM] | EC50 [4] [nM] | EC50 [5] [nM] | EC50 (read off the curve) [6] [nM] |
| --- | --- | --- | --- | --- | --- | --- |
| B1 | ~0.04 | 0.188 | 0.167 | 0.121 | 0.321 |  |
| B2 |  |  |  |  |  | ~0.07 |
